Legend:
[1] = target: T1, mfIL-4R of the cellular bioassay (monkey (Macaca fascicularis), UniProt P24394 26-231 (human entry)); assay: cell-based or functional assay
T1 chain: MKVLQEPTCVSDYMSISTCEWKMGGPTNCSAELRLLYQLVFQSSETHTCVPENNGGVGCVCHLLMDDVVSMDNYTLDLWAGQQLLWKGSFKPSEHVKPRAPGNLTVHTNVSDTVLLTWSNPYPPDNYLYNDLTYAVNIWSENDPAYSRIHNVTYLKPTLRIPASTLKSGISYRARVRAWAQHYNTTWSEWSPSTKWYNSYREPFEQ

[2] = target: T2, hIL-4R on engineered HK293 cells (human STAT6 and STAT6 luciferase reporter) (human, UniProt P24394 26-232); assay: cell-based or functional assay
T2 sequence: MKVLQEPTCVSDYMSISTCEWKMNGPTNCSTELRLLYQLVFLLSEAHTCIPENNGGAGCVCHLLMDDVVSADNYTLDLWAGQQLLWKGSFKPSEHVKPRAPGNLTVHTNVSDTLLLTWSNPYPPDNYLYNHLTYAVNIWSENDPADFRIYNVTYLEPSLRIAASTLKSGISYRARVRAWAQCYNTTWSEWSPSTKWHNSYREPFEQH

[3] = target: T3, monomeric hIL-4R (R&D Systems) (human, UniProt P24394 26-232, limits assumed); assay: SPR (BIACORE 2000), antibody captured on anti-hFc, monomeric hIL-4R, 25° C.
T3 construct: Bought protein (R&D Systems); also called human IL-4 receptor alpha
T3 sequence: T2 sequence
Procedure: (§1) Briefly, antibody was captured on a goat anti-hFc polyclonal antibody surface created through direct coupling to a BIACORE™ chip to form a captured antibody surface. Various concentrations (ranging from 50 nM to 12.5 nM) of monomeric hIL-4R (R&D Systems) or dimeric hIL-4R-mFc were injected over the captured antibody surface at 10 μl/min for 2.5 min at either 25° C. or 37° C. Binding of antigen to antibody and dissociation of the bound complex, were monitored in real time. Equilibrium dissociation constants (KD) and dissociation rate constants were ascertained by performing kinetic analysis using BIA evaluation software. BIA evaluation software was also used to calculate the half-life of antigen/antibody complex dissociation (T_{1/2}). […] Control: a fully human anti-IL-4R antibody (U.S. Pat. No. 7,186, 809; SEQ ID NOs:10 and 12).

[4] = target: T3, monomeric hIL-4R (R&D Systems); assay: SPR (BIACORE 2000), antibody captured on anti-hFc, monomeric hIL-4R, 37° C.
Procedure: as §1

dimeric hIL-4R-mFc [5] = target: T4, dimeric hIL-4R-mFc (human, UniProt P24394 26-232); assay: SPR (BIACORE 2000), antibody captured on anti-hFc, dimeric hIL-4R-mFc, 25° C.
T4 construct: not shown: mFc (mouse Fc)
T4 sequence: T2 sequence
Procedure: as §1

dimeric hIL-4R-mFc [6] = target: T4, dimeric hIL-4R-mFc; assay: SPR (BIACORE 2000), antibody captured on anti-hFc, dimeric hIL-4R-mFc, 37° C.
Procedure: as §1

dimeric hIL-4R-mFc [7] = target: T4, dimeric hIL-4R-mFc; assay: ELISA-based solution competition, 25 pM hIL-4R-mFc, free receptor on biotin-hIL4 plate
Procedure: (§2) Antibody-antigen binding affinity was also assessed using an ELISA-based solution competition assay. Briefly, a 96-well MAXISORP™ plate was first coated with 5 μg/ml avidin overnight followed by BSA blocking for 1 hr. […] The plate was used to measure either free hIL-4R-mFc (dimeric hIL-4R) or free hIL-4R-myc-myc-his (hIL4R-mmh, monomeric hIL4R) in the antibody titration sample solutions. […] After 1 hr binding, the plate was washed and bound hIL-4R-mFc was detected using either an HRP-conjugated mouse anti-mFc polyclonal antibody or an HRP-conjugated goat anti-myc polyclonal antibodies. IC₅₀ values were determined (Table 2).

hIL-4R-myc-myc-his = target: T5, hIL-4R-myc-myc-his (human, UniProt P24394 26-232); assay: ELISA-based solution competition, 200 pM hIL-4R-mmh, free receptor on biotin-hIL4 plate
T5 construct: also called hIL-4R-mmh; hIL4R-mmh; not shown: myc-myc-his tag
T5 sequence: T2 sequence
Procedure: as §2

B1: H4H098P (antibody, V domains shown)
VH: EVQLVESGGGLEQPGGSLRLSCAGSGFTFRDYAMTWVRQAPGKGLEWVSSISGSGGNTYYADSVKGRFTISRDNSKNTLYLQMNSLRAEDTAVYYCAKDRLSITIRPRYYGLDVWGQGTTVTVS
VL: DIVMTQSPLSLPVTPGEPASISCRSSQSLLYSIGYNYLDWYLQKSGQSPQLLIYLGSNRASGVPDRFSGSGSGTDFTLKISRVEAEDVGFYYCMQALQTPYTFGQGTKLEIK
[1]
  IC50, bioassay in the presence of 360 fM mfIL-4: 150 nM
[2]
  IC50 (pM), STAT6 luciferase bioassay, 10 pM hIL-4: 27 pM
  IC50 (pM), STAT6 luciferase bioassay, 40 pM hIL-13: 25 pM

B2: H4H083P (antibody, V domains shown)
VH: EVQLVESGGGLVQPGRSLRLSCEASGFTFDDYAMHWVRQAPGKGLEWVSGLSRTSVSIGYADSVKGRFTISRDNAKNSLYLEMNSLRPEDTALYYCAKWGTRGYFDYWGQGTLVTVSS
VL: DIQMTQSPSSVSASVGDRVTITCRASQDISIWLAWYQQSPGKAPKLLINVASRLQSGVPSRFSGSGSGTDFTLTINSLQPEDFVTYYCQQANSFPITFGQGTRLEIK
notes: Human anti-hIL-4R antibody captured via anti-hFc
[2]
  IC50 (pM), STAT6 luciferase bioassay, 10 pM hIL-4: 25 pM
  IC50 (pM), STAT6 luciferase bioassay, 40 pM hIL-13: 19 pM
[3]
  Kd: 0.048 nM
  T1/2: 6.02 h
[4]
  Kd: 0.183 nM
  T1/2: 1.45 h
Dimeric hIL-4R-mFc [5]
  T1/2: 4.08 h
Dimeric hIL-4R-mFc [6]
  Kd: 0.0381 nM
  T1/2: 2.72 h
Dimeric hIL-4R-mFc [7]
  IC50: 0.0096 nM
hIL-4R-myc-myc-his
  IC50: 0.08 nM

B3: H4H095P (antibody, V domains shown)
VH: QVQLVESGGGVVQPGRSLRLSCAASGFTFRSYGMHWVRQAPGKGLEWVAVISYDGSNKYYIDSVKGRFTISRDNSKNTLNLQMNSLRLEDTAVYYCAKEGRGGFDYWGQGTLVTVSS
VL: DIQMTQSPSSLSASVGDRVTITCRASQVINNYLAWFQQKPGKVPKSLIHAASSLQSGVPSKFSGSGSGTDFTLTISSLQPEDFATYYCQQYNSHPWTFGQGTKVEIK
notes: as for B2
[2]
  IC50 (pM), STAT6 luciferase bioassay, 10 pM hIL-4: 98 pM
  IC50 (pM), STAT6 luciferase bioassay, 40 pM hIL-13: 86 pM
[3]
  Kd: 0.274 nM
  T1/2: 2.18 h
[4]
  Kd: 0.437 nM
  T1/2: 0.817 h
Dimeric hIL-4R-mFc [5]
  Kd: 0.302 nM
  T1/2: 2.6 h
Dimeric hIL-4R-mFc [6]
  Kd: 0.314 nM
  T1/2: 1.93 h
Dimeric hIL-4R-mFc [7]
  IC50: 0.04 nM
hIL-4R-myc-myc-his
  IC50: 0.09 nM

Reference: US20090074793A1 (published 2009)
